Assay results taken from paper PMC8649222, “Exclusive inhibition of IL-6 trans-signaling by soluble gp130^FlyRFc” (Cytokine: X, 2021).
Each block holds one binder with its values, some of them ahead of it.

B2: Hyper IL-11 (HIL-11), IL-11 covalently linked to sIL-11R (other)
chain: SSPCPQAWGPPGVQYGQPGRSVKLCCPGVTAGDPVSWFRDGEPKLLQGPDSGLGHELVLAQADSTDEGTYICQTLDGALGGTVTLQLGYPPARPVVSCQAADYENFSCTWSPSQISGLPTRYLTSYRKKTVLGADSQRRSPSTGPWPCPQDPLGAARCVVHGAEFWSQYRINVTEVNPLGASTRLLDVSLQSILRPDPPQGLRVESVPGYPRRLRASWTYPASWPCQPHFLLKFRLQYRPAQHPAWSTVEPAGLEEVITDAVAGLPHAVRVSARDFLDAGTWSTWSPEAWGTPSTGTIPKEIPAWGQLHTQPEVEPQVDSPAPPRPSLQPHPRLLDHRDSVEQVAVLAPGPPPGPPRVSPDPRAELDSTVLLTRSLLADTRQLAAQLRDKFPADGDHNLDSLPTLAMSAGALGALQLPGVLTRLRADLLSYLRHVQWLRRAGGSSLKTLEPELGTLQARLDRLLRRLQLLMSRLALPQPPPDPPAPPLAPPSSAWGGIRAAHAILGGLHLTLDWAVRGLLLLKTRL
B3: sgp130Fc (Fc fusion, human, UniProt P40189 23-619, looked up)
chain: ELLDPCGYISPESPVVQLHSNFTAVCVLKEKCMDYFHVNANYIVWKTNHFTIPKEQYTIINRTASSVTFTDIASLNIQLTCNILTFGQLEQNVYGITIISGLPPEKPKNLSCIVNEGKKMRCEWDGGRETHLETNFTLKSEWATHKFADCKAKRDTPTSCTVDYSTVYFVNIEVWVEAENALGKVTSDHINFDPVYKVKPNPPHNLSVINSEELSSILKLTWTNPSIKSVIILKYNIQYRTKDASTWSQIPPEDTASTRSSFTVQDLKPFTEYVFRIRCMKEDGKGYWSDWSEEASGITYEDRPSKAPSFWYKIDPSHTQGYRTVQLVWKTLPPFEANGKILDYEVTLTRWKSHLQNYTVNATKLTVNLTNDRYLATLTVRNLVGKSDAAVLTIPACDFQATHPVMDLKAFPKDNMLWVEWTTPRESVKKYILEWCVLSDKAPCITDWQQEDGTVHRTYLRGNLAESKCYLITVTPVYADGPGSPESIKAYLKQAPPSKGPTVRTKKVGKNEAVLEWDQLPVDVQNGFIRNYTIFYRTIIGNETAVNVDSSHTEYTLSSLTSDTLYMVRMAAYTDEGGKDGPEFTFTTPKFAQGEIE
B4: sgp130^R281QFc (Fc fusion, human, UniProt P40189 23-619, looked up)
chain: ELLDPCGYISPESPVVQLHSNFTAVCVLKEKCMDYFHVNANYIVWKTNHFTIPKEQYTIINRTASSVTFTDIASLNIQLTCNILTFGQLEQNVYGITIISGLPPEKPKNLSCIVNEGKKMRCEWDGGRETHLETNFTLKSEWATHKFADCKAKRDTPTSCTVDYSTVYFVNIEVWVEAENALGKVTSDHINFDPVYKVKPNPPHNLSVINSEELSSILKLTWTNPSIKSVIILKYNIQYRTKDASTWSQIPPEDTASTQSSFTVQDLKPFTEYVFRIRCMKEDGKGYWSDWSEEASGITYEDRPSKAPSFWYKIDPSHTQGYRTVQLVWKTLPPFEANGKILDYEVTLTRWKSHLQNYTVNATKLTVNLTNDRYLATLTVRNLVGKSDAAVLTIPACDFQATHPVMDLKAFPKDNMLWVEWTTPRESVKKYILEWCVLSDKAPCITDWQQEDGTVHRTYLRGNLAESKCYLITVTPVYADGPGSPESIKAYLKQAPPSKGPTVRTKKVGKNEAVLEWDQLPVDVQNGFIRNYTIFYRTIIGNETAVNVDSSHTEYTLSSLTSDTLYMVRMAAYTDEGGKDGPEFTFTTPKFAQGEIE
B5: sgp130^FlyFc (Fc fusion, human, UniProt P40189 23-619, looked up)
chain: ELLDPCGYISPESPVVQLHSNFTAVCVLKEKCMDYFHVNANYIVWKTNHFTIPKEQYTIINRTASSVTFTDIASLNIQLYCNILTFGQLEFLVYGITIISGLPPEKPKNLSCIVNEGKKMRCEWDGGRETHLETNFTLKSEWATHKFADCKAKRDTPTSCTVDYSTVYFVNIEVWVEAENALGKVTSDHINFDPVYKVKPNPPHNLSVINSEELSSILKLTWTNPSIKSVIILKYNIQYRTKDASTWSQIPPEDTASTRSSFTVQDLKPFTEYVFRIRCMKEDGKGYWSDWSEEASGITYEDRPSKAPSFWYKIDPSHTQGYRTVQLVWKTLPPFEANGKILDYEVTLTRWKSHLQNYTVNATKLTVNLTNDRYLATLTVRNLVGKSDAAVLTIPACDFQATHPVMDLKAFPKDNMLWVEWTTPRESVKKYILEWCVLSDKAPCITDWQQEDGTVHRTYLRGNLAESKCYLITVTPVYADGPGSPESIKAYLKQAPPSKGPTVRTKKVGKNEAVLEWDQLPVDVQNGFIRNYTIFYRTIIGNETAVNVDSSHTEYTLSSLTSDTLYMVRMAAYTDEGGKDGPEFTFTTPKFAQGEIE

Legend:
sgp130Fc [1] = target: B3; assay: SPR; sgp130Fc and sgp130^FlyFc captured on a ProtA chip; increasing concentrations of IL-27 injected; conditions: both partners purified
sgp130^FlyFc [2] = target: B5; assay: as above; conditions: both partners purified
sgp130Fc [3] = target: B3; assay: SPR; Biacore X100, multi-cycle; sgp130Fc variants captured on a Protein A chip (~500 RU); HIL-6 or HIL-11 injected at 0.1953-50 nM, 30 µl/min; 25 °C, PBS pH 7.4, 0.05% surfactant P20; 1:1 binding model; conditions: both partners purified
sgp130^FlyFc [4] = target: B5; assay: as above; conditions: both partners purified
sgp130^R281QFc = target: B4; assay: as above; conditions: both partners purified
[5] = target: B2; assay: cell-based or functional assay

- Kd (sgp130Fc [1]): 69 nM
- Kd (sgp130^FlyFc [2]): 58 nM
B1: IL-27 (complex)
chain 1: FPRPPGRPQLSLQELRREFTVSLHLARKLLSEVRGQAHRFAESHLPGVNLYLLPLGEQLPDVSLTFQAWRRLSDPERLCFISTTLQPFHALLGGLGTQGRWTNMERMQLWAMRLDLRDLQRHLRFQVLAAGFNLPEEEEEEEEEEEEERKGLLPGALGSALQGPAQVSWPQLLSTYRLLHSLELVLSRAVRELLLLSKAGHSVWPLGFPTLSPQP
chain 2: RKGPPAALTLPRVQCRASRYPIAVDCSWTLPPAPNSTSPVSFIATYRLGMAARGHSWPCLQQTPTSTSCTITDVQLFSMAPYVLNVTAVHPWGSSSSFVPFITEHIIKPDPPEGVRLSPLAERQLQVQWEPPGSWPFPEIFSLKYWIRYKRQGAARFHRVGPIEATSFILRAVRPRARYYVQVAAQDLTDYGELSDWSLPATATMSLGK

Binder: B2
- Kd (sgp130Fc [3]): 0.069 nM
- Kd (sgp130^FlyFc [4]): 0.67 nM
- Kd (sgp130^R281QFc): 0.61 nM

Binder: B3
- IC50 of inhibition of H-IL-11 (10 ng/ml) induced proliferation of Ba/F3-gp130 cells (blocks HIL-11 from membrane-bound gp130) [5]: 0.12 nM

Binder: B4
- IC50 of inhibition of H-IL-11 (10 ng/ml) induced proliferation of Ba/F3-gp130 cells (blocks HIL-11 from membrane-bound gp130) [5]: 72.8 nM

Binder: B5
- IC50 of inhibition of H-IL-11 (10 ng/ml) induced proliferation of Ba/F3-gp130 cells (blocks HIL-11 from membrane-bound gp130) [5]: 40.7 nM
